Molecular target: T1, recombinant 77-kDa GPBP expressed from pc-n4′ (human, UniProt Q9Y5P4 1-624)
T1 construct: untagged, transient expression in HEK 293 cells; also called 77-kDa GPBP isoform
T1 sequence: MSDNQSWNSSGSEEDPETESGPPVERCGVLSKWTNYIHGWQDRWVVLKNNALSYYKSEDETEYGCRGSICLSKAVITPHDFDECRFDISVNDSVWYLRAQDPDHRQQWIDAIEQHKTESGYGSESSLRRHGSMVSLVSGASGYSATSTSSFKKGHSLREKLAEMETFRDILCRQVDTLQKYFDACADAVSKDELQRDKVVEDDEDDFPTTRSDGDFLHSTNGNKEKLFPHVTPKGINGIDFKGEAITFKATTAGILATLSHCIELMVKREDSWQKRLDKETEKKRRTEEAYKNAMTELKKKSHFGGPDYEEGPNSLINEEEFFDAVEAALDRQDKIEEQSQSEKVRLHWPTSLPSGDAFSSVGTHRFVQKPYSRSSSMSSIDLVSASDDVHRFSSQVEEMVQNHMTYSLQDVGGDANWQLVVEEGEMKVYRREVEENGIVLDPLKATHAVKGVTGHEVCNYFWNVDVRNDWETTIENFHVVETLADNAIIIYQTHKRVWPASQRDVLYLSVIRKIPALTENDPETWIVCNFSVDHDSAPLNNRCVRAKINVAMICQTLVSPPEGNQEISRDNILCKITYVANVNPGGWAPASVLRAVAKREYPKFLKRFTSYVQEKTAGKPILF
Assay: ex vivo cross-linking and FLAG immunoprecipitation
Experimental: Cells were grown up to 70-90% of confluence in either 150-mm plates (native GPBP) or six-well plates (recombinant GPBP). Cross-linking was performed 48 h after transfection or when cells reached the indicated confluence. Briefly, cells were brought to RT by rinsing with PBS and incubated for 10 min with culture medium containing 1% formaldehyde. The cross-link reaction was quenched with 125 mM Gly-HCl in PBS (pH 7.4) for 10 min at RT. Cells were brought to 4° C. by rinsing with ice-chilled PBS and procedure continued at 4° C. Cells were lysed with 1 or 5 ml (six-well or 150-mm plate) of extraction buffer [16 mM Tris-HCl pH 7.5, 160 mM NaCl, 2 mM ethylenediaminetetraacetic acid (EDTA), 1. […] Eluted samples were boiled with electrophoresis sample buffer (2×) for 15 min to reverse cross-linking and further analyzed by SDS-PAGE and either Coomassie blue staining or Western blot.
This was further assessed by ex vivo cross-linking and FLAG-immunoprecipitation of cells expressing or not expressing BM40-FLAG-α3(IV)NC1, a recombinant exportable form of the human α3(IV)NC1 (16), followed by SDS-PAGE analysis of immunoprecipitates (FIG. 4A). […] To further determine that GPBP indeed interacted with FLAG-α3(IV) in the ER, cells expressing or not expressing BM40-FLAG-α3(IV)NC1 were transfected with pc-n4′ and similarly analyzed (FIG. 4B).

binding result: binds
B1: FLAG-α3(IV)NC1, recombinant exportable human α3(IV)NC1 domain (BM40-FLAG-α3(IV)NC1) (other, not shown: small tags and cut ends)
chain: GLKGKRGDSGSPATWTTRGFVFTRHSQTTAIPSCPEGTVPLYSGFSFLFVQGNQRAHGQDLGTLGSCLQRFTTMPFLFCNVNDVCNFASRNDYSYWLSTPALMPMNMAPITGRALEPYISRCTVCEGPAIAIAVHSQTTDIPPCPHGWISLWKGFSFIMFTSAGSEGTGQALASPGSCLEEFRASPFLECHGRGTCNYYSNSYSFWLASLNPERMFRKPIPSTVKAGELEKIISRCQVCMKKRH
notes: expressed in HEK 293-FLAG-α3(IV) cells; also called type IV collagen
